This passage reports Kd, koff and kon results from patent US20120020975A1.

Test [1] concerns the target human PCSK9 (proprotein convertase subtilisin kexin type 9), mature form (human) (UniProt Q8NBP7). The experiment in a line: KinExA solution equilibrium, PCSK9-coated beads. On the technique in general: A kinetic exclusion assay measures how much of one partner remains free in solution.
Test [2] shares this target. The experiment in a line: BIAcore SPR, pH 7.4. Background: SPR reads the build-up and loss of mass on a sensor chip optically.
Test [3] has the same target. Briefly: BIAcore SPR, antibody amine-coupled to CM5 chip, PCSK9 as analyte, pH 7.4.
The target is the same in test [4]. The experiment in a line: BIAcore SPR, pH 6.0.
Test [5] has the same target. Briefly: BIAcore solution equilibrium binding assay, free PCSK9 read on immobilized 21B12.

B1: 16F12, anti-PCSK9 huIgG4 (antibody, V domains shown)
VH: QVHLVESGGGVVQPGRSLRLSCAASGFTFNSFGMHWVRQAPGKGLEWVALIWSDGSDEYYADSVKGRFTISRDNSKNTLYLQMNSLRAEDTAVYYCARAIAALYYYYGMDVWGQGTTVTVSS
VL: QSVLTQPPSVSAAPGQKVTISCSGSSSNIGNNFVSWYQQLPGTAPKLLIYDYNKRPSGIPDRFSGSKSGTSATLGITGLQTGDEADYYCGTWDSSLSAYVFGTGTRVTVLQ
On to B1, for which the Kd in test [1] stood at 0.015 nM; in test [2], 0.47 nM; in test [3] it was 0.47 nM; in test [4], 0.029 nM. In addition, the values for the koff in test [2] and in test [4] were 4.98e-05 s⁻¹ and 7.01e-05 s⁻¹, respectively. For the same molecule, the kon in test [2] is 106000 M⁻¹ s⁻¹; in test [4], 2.39e+06 M⁻¹ s⁻¹.

B2: 21B12, anti-PCSK9 huIgG4 (antibody, V domains shown)
VH: QVQLVQSGAEVKKPGASVKVSCKASGYTLTSYGISWVRQAPGQGLEWMGWVSFYNGNTNYAQKLQGRGTMTTDPSTSTAYMELRSLRSDDTAVYYCARGYGMDVWGQGTTVTVSS
VL: QSALTQPASVSGSPGQSITISCTGTSSDVGGYNSVSWYQQHPGKAPKLMIYEVSNRPSGVSNRFSGSKSGNTASLTISGLQAEDEADYYCNSYTSTSMVFGGGTKLTVLQ
For B2, the Kd in test [2] worked out at 0.19 nM; in test [3], 0.19 nM; in test [5], 0.015 nM; in test [4], 0.0073 nM. Also, the values for the koff in test [2] and in test [4] were 6.63e-06 s⁻¹ and 1.68e-05 s⁻¹, respectively. Also, the values for the kon in test [2] and in test [4] were 34900 M⁻¹ s⁻¹ and 2.29e+06 M⁻¹ s⁻¹, respectively.

One may read the Kd as a measure of binding affinity in units of concentration. Higher therefore signals weaker binding. What is called koff is a measure of how fast the partners let go of each other. A word on the kon: it is the second-order rate constant of association. Higher therefore signals fast association.
